# Assay results as given in patent US20240368668A1, “SUBSTRATES AND BIOMARKERS OF ADAMTS7” (The Broad Institute, Inc., priority 2021, published 2024).
# Square brackets hold non-standard residues; d marks the D form. Ends that are not written are not given here.
# Molecular target: T1, mouse ADAMTS7 (Mus musculus, UniProt Q68SA9)
# T1 construct: Full-length mouse Adamts7 1-1857 (Uniprot Q68SA9, WT or E373Q catalytic mutant); expressed in transfected cells; host or cells: Human Coronary Artery Smooth Muscle Cells (HCA-SMC, Lonza), adenovirus 50 MOI
# T1 sequence (Q68SA9 221-1657): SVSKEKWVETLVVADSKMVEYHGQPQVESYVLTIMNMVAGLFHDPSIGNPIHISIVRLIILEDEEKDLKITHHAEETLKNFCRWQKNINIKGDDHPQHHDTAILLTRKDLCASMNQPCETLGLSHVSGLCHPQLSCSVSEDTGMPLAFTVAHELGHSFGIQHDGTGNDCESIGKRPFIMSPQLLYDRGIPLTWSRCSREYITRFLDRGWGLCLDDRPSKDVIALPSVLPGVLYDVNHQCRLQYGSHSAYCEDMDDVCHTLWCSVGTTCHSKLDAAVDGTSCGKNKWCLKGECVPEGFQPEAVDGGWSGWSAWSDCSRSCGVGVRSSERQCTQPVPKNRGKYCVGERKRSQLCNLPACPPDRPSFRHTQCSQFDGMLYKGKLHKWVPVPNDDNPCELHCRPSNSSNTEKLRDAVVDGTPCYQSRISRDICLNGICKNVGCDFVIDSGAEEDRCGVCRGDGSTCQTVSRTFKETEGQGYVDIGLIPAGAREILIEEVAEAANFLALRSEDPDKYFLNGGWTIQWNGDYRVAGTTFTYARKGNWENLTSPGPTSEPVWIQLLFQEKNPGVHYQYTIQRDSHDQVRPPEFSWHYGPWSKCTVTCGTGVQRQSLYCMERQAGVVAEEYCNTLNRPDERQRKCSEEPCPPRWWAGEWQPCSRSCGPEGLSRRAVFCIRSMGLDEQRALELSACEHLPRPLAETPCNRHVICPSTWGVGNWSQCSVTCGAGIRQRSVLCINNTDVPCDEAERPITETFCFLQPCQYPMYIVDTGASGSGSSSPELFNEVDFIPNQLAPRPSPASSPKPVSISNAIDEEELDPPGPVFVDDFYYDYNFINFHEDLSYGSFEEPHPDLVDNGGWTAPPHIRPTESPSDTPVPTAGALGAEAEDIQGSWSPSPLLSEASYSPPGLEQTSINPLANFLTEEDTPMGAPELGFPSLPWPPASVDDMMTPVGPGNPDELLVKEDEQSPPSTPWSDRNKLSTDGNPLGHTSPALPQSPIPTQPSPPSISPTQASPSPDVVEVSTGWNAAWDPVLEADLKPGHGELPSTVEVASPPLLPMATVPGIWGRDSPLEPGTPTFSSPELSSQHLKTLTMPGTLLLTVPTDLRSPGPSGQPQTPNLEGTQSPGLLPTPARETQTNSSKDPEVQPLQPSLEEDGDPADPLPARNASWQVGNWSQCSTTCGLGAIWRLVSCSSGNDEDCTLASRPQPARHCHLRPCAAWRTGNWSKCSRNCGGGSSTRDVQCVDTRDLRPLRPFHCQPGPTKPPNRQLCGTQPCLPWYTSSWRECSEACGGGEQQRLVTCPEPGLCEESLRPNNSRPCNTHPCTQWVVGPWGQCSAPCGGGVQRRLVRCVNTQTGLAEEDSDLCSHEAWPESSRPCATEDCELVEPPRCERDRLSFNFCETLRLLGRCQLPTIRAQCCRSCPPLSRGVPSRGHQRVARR
# Test: TMT10 TAILS N-terminomics, HUVEC experiment (process replicates, trypsin/AspN digest)
# Type: cell-based, human
# Details: HUVEC TAILS HC; log fold change of N-terminal peptide, Ad-mADAMTS7 WT over Luc
# Procedure, shortened: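 Full-length mouse ADAMTS7 (WT or E373Q mutant, C-terminal 3xFLAG) or luciferase was transduced via adenovirus, 50 MOI, into HCA-SMC (SMC1, SMC2) or HUVEC. SMC1: pooled media, technical triplicates 400 ug; SMC2: process triplicates 300 ug; HUVEC: process triplicates 200 ug, bFGF2 10 ng/ml.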
row,Substance,logFC.mWT.over.Luc
1,EFEMP1_125_ (VAGPEMQTGR; listed as Homo sapiens),2.34
2,ERAP2_718 (ISENLKR; listed as Homo sapiens),5.05
3,FN1_607 (SSSGPVEVFIT; listed as Homo sapiens),2.31
4,FN1_1144 (TPGVEYVYTIQVLR; listed as Homo sapiens),1.43
5,FN1_1780 (LQGLRPGSEYTVSVVALH; listed as Homo sapiens),1.80
6,FN1_1805 (LIGTQSTAIPAPT; listed as Homo sapiens),1.47
7,FSTL1_290 (LQKHQETA; listed as Homo sapiens),2.34
8,LOX_125 (FQAGYSTSR; listed as Homo sapiens),3.82

# Next, values leading:
row,logFC.mWT.over.Luc,Substance
1,2.21,ECM1_108 (QEAVPLQK; listed as Homo sapiens)
2,1.10,EWSR1_87 (YSQPVQGYGTGAY; listed as Homo sapiens)
3,1.37,FN1_34 ([code q]QMVQPQSPVAVSQSKPGCY; not fully specified (residue 3); listed as Homo sapiens)
4,2.31,FN1_35 ([code q]MVQPQSPVAVSQSKPGCY; not fully specified (residue 2); listed as Homo sapiens)
5,0.96,FN1_293 (VYQPQPHPQPPPYGHCVT; listed as Homo sapiens)
6,1.05,FN1_2113 (FVTHPGY; listed as Homo sapiens)
